Experimental data: US20260242852

Biological target: AsCas12a (Acidaminococcus sp.?) (UniProt U2UMQ6)
Test: BLI
Details: ΨDNA guide binding without target; NEB 2.1, 0.05% Triton X

AGCACCCAGTCCGCCCTGAGTAGATGTGAATCATCTTTAAT [AsCas12a GFP ΨDNA 3'-biotin]
Kd: 24.5 nM
